Source: publication PMC4005663

Molecular target: full-length GST–MLV IN(1–408) (murine leukemia virus (MLV))
Assay: pull-down
Conditions: not given

Sequence of full-length GST–MLV IN(1–408) (murine leukemia virus (MLV)) (P03355 1331-1738 limits assumed): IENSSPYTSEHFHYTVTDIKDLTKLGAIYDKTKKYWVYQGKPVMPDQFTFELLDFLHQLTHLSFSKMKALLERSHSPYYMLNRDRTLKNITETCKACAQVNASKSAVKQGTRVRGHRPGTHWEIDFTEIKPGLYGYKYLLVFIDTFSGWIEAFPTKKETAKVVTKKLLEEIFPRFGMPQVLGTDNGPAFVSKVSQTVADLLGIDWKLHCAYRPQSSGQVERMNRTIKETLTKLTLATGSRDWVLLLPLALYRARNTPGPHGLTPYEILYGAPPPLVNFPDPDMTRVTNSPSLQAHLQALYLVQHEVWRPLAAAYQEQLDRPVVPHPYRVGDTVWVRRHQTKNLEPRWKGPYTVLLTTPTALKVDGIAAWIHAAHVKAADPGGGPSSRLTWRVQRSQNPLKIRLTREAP

Row | Substance | Kd
1 | 6xHis–Brd4 B/BID(462–599) (from UniProt O60885 462-599) (domain or fragment) | > 2 µM
2 | 6xHis–Brd4 ET(600–678) (from UniProt O60885 600-678) (domain or fragment) | 0.205 µM
3 | 6xHis–Brd4 ET/SEED(600–720) (from UniProt O60885 600-720) (domain or fragment) | 0.206 µM
4 | 6xHis–Brd4(1–720) (from UniProt O60885 1-720) (natural protein) | 0.0584 µM
5 | 6xHis–cBrd4(462–720) (from UniProt O60885 462-720) (domain or fragment) | 0.0773 µM
6 | 6xHis–nBrd4(1–461) (from UniProt O60885 1-461) (domain or fragment) | > 2 µM

Tested on: 6xHis-Brd4(1-720) (human)
Assay: streptavidin bead pull-down, Coomassie, Hill fit
Conditions: no added Mg2+; DNA pull-down: 50 mM HEPES pH 7.5, 100 mM NaCl, 0.5% NP40, 2 mM BME, 8.3 uM DNA; HTRF: 25 mM Tris pH 7.4, 150 mM NaCl, 2 mM MgCl2, 0.1% NP40, 1 mg/ml BSA …

Row | Substance | Kd
7 | 40-bp SMYD1 DNA | 2.14 µM
